The target of data set [1] is T1, N-myristoylglycylpeptide synthetase (N-myristoyl transferase) (Saccharomyces cerevisiae, UniProt P14743).
T1 construct: using crude membrane fractions from yeast with changes as indicated; endogenous in cells; host or cells: S. cerevisiae strain JR153 (protease-deficient), crude membrane pellet of the cell lysate
T1 sequence (P14743 1-455): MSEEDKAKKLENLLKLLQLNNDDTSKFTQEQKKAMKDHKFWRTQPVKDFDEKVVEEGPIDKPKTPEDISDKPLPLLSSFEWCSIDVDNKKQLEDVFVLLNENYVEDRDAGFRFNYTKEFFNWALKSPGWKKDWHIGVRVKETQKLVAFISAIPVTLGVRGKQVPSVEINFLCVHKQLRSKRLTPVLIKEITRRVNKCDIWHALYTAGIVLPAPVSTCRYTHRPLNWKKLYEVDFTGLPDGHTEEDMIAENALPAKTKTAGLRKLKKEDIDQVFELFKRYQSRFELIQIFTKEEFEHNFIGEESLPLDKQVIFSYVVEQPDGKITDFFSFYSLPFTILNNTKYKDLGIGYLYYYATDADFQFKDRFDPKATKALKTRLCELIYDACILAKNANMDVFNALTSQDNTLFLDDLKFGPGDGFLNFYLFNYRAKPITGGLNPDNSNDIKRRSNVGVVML
The experiment in a line: Assay for N-myristoylglycylpeptide synthetase activity, crude membrane fractions from yeast. The format is biochemical. The settings on record: for activity as substrate for myristoylglycylpeptide synthetase: result in words. Here is the method:
The synthetic octapeptide […]was used to identify a unique enzymatic activity which transfers myristic acid to the amino terminal glycine of this and other peptides. […] The enzyme activity was determined in an in vitro assay which measures the transfer of [^3 H]-myristic acid to the acceptor peptide. The transfer reaction is dependent on adenosine triphosphate (ATP) and coenzyme A (CoA). The enzymatic product was then identified by high performance liquid chromatography (HPLC) by co-elution with a chemically synthesized myristoyl peptide standard. […] Both contained M-myristoyl glycine.
Preparation of yeast extract for the assay of N-myristoylglycylpeptide synthetase activity. Yeast cultures were grown as described above to O.D. 660 nm of 1 to 3. Cells from 40 ml of culture were collected by centrifugation at 4° C. at 7600×g for 10 minutes. The supernatant was decanted, the cell pellet was resuspended by pipetting into 1 ml of cold 10 mM Tris, pH 7.4, transferred to a 1.5 ml conical polypropylene centrifuge tube, and the cells were then repelleted at 4° C. at 7600×g for 10 minutes. Cells were resuspended in 400 μl of cold assay lysis buffer (10 mM Tris, pH 7.4, 1 mM dithiothreitol,0.1 mM ethylene glycol-bis(β-aminoethyl ether) N,N,N',N'-tetraacetic acid (EGTA), 10 μg/ml Aprotinin) by pipetting. Approximately 400 μl of 0.5 mm glass beads were added to the resuspended cells, and the cells were lysed by vortexing as described above for lysis of radioactively labeled cells. After allowing the beads to settle, the lysate was collected and cellular debris was removed by centrifugation at 4° C. at 1000×g for 10 minutes. The supernatant was then centrifuged at 4° C. at 45,000 rpm for 30 minutes in a Beckman 75 Ti rotor. The supernatant was removed, and the crude membrane pellet was resuspended by pipetting into 400 μl of cold assay lysis buffer. Aliquots of the three cellular fractions were either assayed immediately or stored at -60° C. The activity associated with crude membranes was stable at -60° C. for at least 3 months. Protein was determined by the method of Peterson, Anal. Biochem. 83, 346-356 (1977).
Assay for N-myristoylglycylpeptide synthetase activity. [^3 H]Fatty acyl CoA was synthesized enzymatically and added to the incubation as follows. […] Typically, 40% to 50% of the [^3 H]fatty acid was converted to its CoA ester by this procedure as measured by determining the radioactivity remaining in the reaction after acidification with 6 N HCl to pH 2.0 and extraction 6 times with 5 volumes of heptane, a modification of the method of Hosaka et al., Meth. […]

Substrate in data set [2]: C[C@H](NC(=O)CN)C(=O)N[C@@H](CCC(N)=O)C(=O)N[C@@H](C)C(=O)N[C@@H](C)C(=O)N[C@@H](C)C(=O)N[C@@H](CCCNC(=N)N)C(=O)N[C@@H](CCCNC(=N)N)C(N)=O
The experiment in a line: Peptide substrate specificity (Km, Vmax) of partially purified yeast myristoylating enzyme. The format is biochemical, S. cerevisiae strain JR153. The settings on record: other: peptide as acyl acceptor, 1 μCi [3H]-myristic acid per tube, 30.0 °C.

Substrate in data set [3]: C[C@H](NC(=O)[C@H](C)NC(=O)[C@H](CCCNC(=N)N)NC(=O)[C@H](CC(N)=O)NC(=O)CN)C(=O)N[C@@H](C)C(=O)N[C@@H](CCCNC(=N)N)C(=O)N[C@@H](CCCNC(=N)N)C(N)=O
The data set is described as above. Format: biochemical, S. cerevisiae strain JR153. The settings on record: other: peptide as acyl acceptor, 1 μCi [3H]-myristic acid per tube, 30.0 °C.

Substrate in data set [4]: C[C@H](NC(=O)[C@H](C)NC(=O)[C@H](Cc1ccccc1)NC(=O)[C@H](CC(N)=O)NC(=O)CN)C(=O)N[C@@H](C)C(=O)N[C@@H](CCCNC(=N)N)C(=O)N[C@@H](CCCNC(=N)N)C(N)=O
The data set is described as above. The format is biochemical, S. cerevisiae strain JR153. The settings on record: other: peptide as acyl acceptor, 1 μCi [3H]-myristic acid per tube, 30.0 °C.

Substrate in data set [5]: CC(C)C[C@H](NC(=O)[C@@H]1CCCN1C(=O)[C@H](Cc1ccc(O)cc1)NC(=O)[C@H](CO)NC(=O)[C@H](C)NC(=O)[C@H](CCC(=O)O)NC(=O)[C@H](CC(N)=O)NC(=O)CN)C(N)=O
The data set is described as above. The format is biochemical, S. cerevisiae strain JR153. The settings on record: other: peptide as acyl acceptor, 1 μCi [3H]-myristic acid per tube, 30.0 °C.

Substrate in data set [6]: C[C@H](NC(=O)[C@H](C)NC(=O)[C@H](C)NC(=O)[C@H](CO)NC(=O)CN)C(=O)N[C@@H](C)C(=O)N[C@@H](CCCNC(=N)N)C(=O)N[C@@H](CCCNC(=N)N)C(N)=O
The data set is described as above. Format: biochemical, S. cerevisiae strain JR153. The settings on record: other: peptide as acyl acceptor, 1 μCi [3H]-myristic acid per tube, 30.0 °C.

Substrate in data set [7]: C[C@H](NC(=O)[C@H](C)NC(=O)[C@H](CC(N)=O)NC(=O)CN)C(=O)N[C@@H](CO)C(N)=O
The description is as above. Format: biochemical, S. cerevisiae strain JR153. The settings on record: other: peptide as acyl acceptor, 1 μCi [3H]-myristic acid per tube, 30.0 °C.

Substrate in data set [8]: C[C@H](NC(=O)[C@H](C)NC(=O)[C@H](C)NC(=O)[C@H](C)NC(=O)[C@H](CC(N)=O)NC(=O)CN)C(N)=O
Described as above. The format is biochemical, S. cerevisiae strain JR153. The settings on record: other: peptide as acyl acceptor, 1 μCi [3H]-myristic acid per tube, 30.0 °C.

Substrate in data set [9]: C[C@H](NC(=O)[C@H](C)NC(=O)[C@H](C)NC(=O)[C@H](CCC(N)=O)NC(=O)CN)C(=O)N[C@@H](C)C(=O)N[C@@H](CCCNC(=N)N)C(=O)N[C@@H](CCCNC(=N)N)C(N)=O
Described as above. The format is biochemical, S. cerevisiae strain JR153. The settings on record: other: peptide as acyl acceptor, 1 μCi [3H]-myristic acid per tube, 30.0 °C.

Substrate in data set [10]: C[C@H](NC(=O)[C@H](C)NC(=O)[C@H](CCC(=O)O)NC(=O)[C@H](CC(N)=O)NC(=O)CN)C(=O)N[C@@H](C)C(=O)N[C@@H](CCCNC(=N)N)C(=O)N[C@@H](CCCNC(=N)N)C(N)=O
Described as above. Format: biochemical, S. cerevisiae strain JR153. The settings on record: other: peptide as acyl acceptor, 1 μCi [3H]-myristic acid per tube, 30.0 °C.

Residues, ends and D or L forms follow the SMILES beside them.

Turning to `NCC(=O)N[C@@H](CC(N)=O)C(N)=O` [GN, Gly-Asn] (H-Gly-Asn-NH2), the “activity as substrate for myristoylglycylpeptide synthetase” value (“activity as substrate” below) in data set [1] is “inactive”.

For `N=C(N)NCCC[C@H](NC(=O)[C@@H]1CCCN1C(=O)CN)C(=O)N1CCC[C@H]1C(N)=O` [GPRP, Gly-Pro-Arg-Pro] (H-GPRP-NH2), the “activity as substrate” value in data set [1] was “inactive”.

Turning to GSSKSPKDPS, in data set [1] (Test 3: 1 mM test peptide added as competitor, 18 μM GlyAsnAlaAlaAlaAlaArgArg substrate, control 26.7), the “Rate of Myristoylpeptide Synthesis” value stood at 27.4 DPM × 10^3 /10 min. For the same molecule, the “activity as substrate” value in data set [1] was “inactive”.

B1: Yeast Myristoylating Enzyme (Saccharomyces cerevisiae S288C) (protein)
chain: T1 sequence (P14743 1-455)
notes: partially purified from a crude homogenate of the cultured yeast cells; endogenous in cells; host or cells: S. cerevisiae strain JR153
By Km is commonly meant the substrate concentration at which the rate is half of its maximum. With B1, the Km was found to be 1400 µM in [2]; 400 µM in [3]; 60 µM in [4]; 2300 µM in data set [5]; 1700 µM in [6]; 900 µM in data set [7]. The Km in data set [8] was found to be 1300 µM; in [9], 70 µM; in data set [10], 1800 µM.

The record behind these values is patent US4740588A, “Novel substrate peptides” (Washington University, priority 1986, dated 1988).
